These results are taken from publication PMC4019693 (Nanomedicine : nanotechnology, biology, and medicine, 2013).

In series [1] the test system is Aβ40. As to conditions: cited from earlier work.
Series [2] deals with Aβ40. In words: SMFS of Aβ40 interaction. In kind it is binding. As to conditions: Aβ40 vs Aβ42, neutral pH; ref [10].
The target in series [3] is T1, Aβ42 (Homo sapiens, UniProt P05067). In words: Single-molecule AFM force spectroscopy. In kind it is binding. As to conditions: pH 7.
Series [4] concerns the target T1, Aβ42. In words: Dynamic force spectroscopy. In kind it is binding. Particulars: for Lifetime of the dimer: calculated by k^−1off, SD from five independent experiments.
The target of series [5] is T1, Aβ42. In words: Contour length analysis of Aβ42 dimers. In kind it is binding. Particulars: for Prevailing region of interpeptide interaction: in words.
A short description of series [6]: SDS-page gel experiment, monomer state of Aβ42. In kind it is physicochemical. Particulars: diluted in different pH buffers from DMSO stock solution (Fig. S1).
The mark [7] stands for this setting: single representative curve (Fig. 2A), WLC fit, ALR ~4,000 pN/s.
The mark [8] stands for this setting: pH 7, area under Gaussian curve.

Values joined by “and” are separate entries in the source; they are usually repeats but may differ in a detail not shown here. Identical values can stand only once. “Also recorded” adds a separate entry of the source.

T1 sequence (P05067 672-713 limits assumed): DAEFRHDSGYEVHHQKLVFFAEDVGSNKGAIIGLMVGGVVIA

As for “Aβ40: Aβ protein containing 40 residues; Aβ42 differs by two extra C terminal residues (I41 and A42)”, the “Dimer lifetime relative to monomer dynamics” value in series [1] (Aβ40 dimer lifetime vs monomer dynamics, ref [10]) is recorded as ~10^6 times. Moreover, in series [1] (pH 7, N-terminal segment interactions, ref [10]), the “Conformer population, major interactions (L0 and L1)” value was 74%. The “Lifetime of misfolded Aβ40 dimers” value in series [1] (ref [10]) is on record as 0.1 s. Further, in series [1] (result in words, reference not given, Aβ40 study is ref [10]), the “Rupture forces of dimers compared to Aβ42” value is given as “quite similar to those for Aβ42”. Besides, the “Dimer lifetime relative to Aβ42” value in series [2] is “four times shorter”.
Consider “Aβ42: Aβ42 terminated with cysteine at N-terminus (AnaSpec, Inc., Fremont, CA)”, for which the “Rupture force of representative curves with various contour lengths” value in series [3] (four curves of Fig. 4A, similar ALR (~20,000 pN/s)) was 150±20 pN. Also, in series [3] (setting [7]), the “Contour length, representative F-D curve” value is recorded as ~ 58 nm and the “Rupture force, representative F-D curve” value is ~ 83 pN. Besides, the “Lifetime of dimers (in words)” value in series [4] (SMFS/DFS, pH not given) is reported as “in the range of a second; also recorded: higher than that of Aβ40”. Besides, the “Lifetime of the dimer” value in series [4] (pH 2.7) was 2.5±0.7 s and 2.5 s and 2.5 (±0.7) s. In series [4] (pH 2.7 vs pH 7), the “Increase of the dimer lifetime, pH 2.7 vs pH 7” value was approximately 5 fold. In series [4] (pH 7), the “Lifetime of the dimer” value is recorded as 0.46 (±0.25) s. Moreover, the “ΔG, barrier height for dimer dissociation” value in series [4] (pH 7, calculated from koff) is recorded as ~ 28.3 kBT. Further, in series [5] (acidic pH (2.7)), the “Prevailing region of interpeptide interaction” value is reported as “interaction within the peptide center prevailed”. In addition, the “Conformer population, model L3 (C-termini), change vs pH 7” value in series [5] (pH 2.7 vs pH 7, result in words) is listed as “three-fold drop in the interaction between the C-termini (model L3)”. Besides, in series [5] (setting [8]), the “Conformer population, model L0 (interactions very close to N-termini)” value is 13% and the “Conformer population, model L1 (middle segments)” value is 29%. In series [5] (pH 7), the “Prevailing region of interpeptide interaction” value is given as “Interaction via C-terminal segments prevailed”. Also, the “Contour length, Gaussian center L0” value in series [5] (pH 7 and 2.7, L0) is reported as “around 35 nm”. For the same substance, the “Contour length, Gaussian center L1” value in series [5] (pH 7 and 2.7, L1) is listed as approximately 41 nm. In addition, the “Contour length, Gaussian center L2” value in series [5] (pH 7 and 2.7, L2) is approximately 47 nm. Further, the “Contour length, Gaussian center L3” value in series [5] (pH 7 and 2.7, L3) was approximately 53 nm. Besides, the “Monomer state by SDS-page gel” value in series [6] is “The monomer state of Aβ42 diluted in different pH buffers from the stock solution was confirmed”.
